From the supplement of paper PMC9112550, “Optimization of the antimicrobial peptide Bac7 by deep mutational scanning” (BMC Biology, 2022)

Tested on: Escherichia coli TOP10
Experiment: shrunken log2 fold change of peptide-encoding DNA abundance (4.5 h post-induction vs induction); higher = less antimicrobial activity (less host growth inhibition)
Conditions: time post-induction: 4.5 h; library: site-saturation at positions 5, 18, 19, 20
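Also: peptides expressed intracellularly from a pBAD plasmid library in pooled LB shake-flask culture, induced with 0.3% L-arabinose, DNA abundance read by NGS, three biological replicates, DESeq2 with apeglm shrinkage.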

| Sequence | shrunken log2 fold change |
| --- | --- |
| RRIRWRPPRLPRPRPRPSLRPRP | 0.0372 |
| RRIRWRPPRLPRPRPRPSLWPRP | 0.575 |
| RRIRWRPPRLPRPRPRPSMAPRP | 0.266 |
| RRIRWRPPRLPRPRPRPSMLPRP | -0.369 |
| RRIRWRPPRLPRPRPRPSNHPRP | -0.471 |
| RRIRWRPPRLPRPRPRPSNVPRP | 0.108 |
| RRIRWRPPRLPRPRPRPSPEPRP | 0.383 |
| RRIRWRPPRLPRPRPRPSPHPRP | -0.0688 |
| RRIRWRPPRLPRPRPRPSRDPRP | 0.479 |
| RRIRWRPPRLPRPRPRPSTYPRP | -0.0575 |
| RRIRWRPPRLPRPRPRPSVDPRP | 0.0991 |
| RRIRWRPPRLPRPRPRPSWHPRP | 0.0186 |
| RRIRWRPPRLPRPRPRPSWIPRP | 0.0261 |
| RRIRWRPPRLPRPRPRPSWMPRP | -0.0675 |
| RRIRWRPPRLPRPRPRPSWNPRP | -0.212 |
| RRIRWRPPRLPRPRPRPSWRPRP | 0.0809 |
| RRIRWRPPRLPRPRPRPTCSPRP | 0.0967 |
| RRIRWRPPRLPRPRPRPTCYPRP | -0.0755 |
| RRIRWRPPRLPRPRPRPTDEPRP | 0.582 |
| RRIRWRPPRLPRPRPRPTDIPRP | -0.151 |
| RRIRWRPPRLPRPRPRPTDYPRP | 0.233 |
| RRIRWRPPRLPRPRPRPTEKPRP | 0.103 |
| RRIRWRPPRLPRPRPRPTFMPRP | -0.172 |
| RRIRWRPPRLPRPRPRPTFSPRP | -0.0911 |
| RRIRWRPPRLPRPRPRPTGYPRP | -0.145 |

| Sequence | shrunken log2 fold change |
| --- | --- |
| RRIRWRPPRLPRPRPRPTIQPRP | 0.0488 |
| RRIRWRPPRLPRPRPRPTKCPRP | -0.121 |
| RRIRWRPPRLPRPRPRPTKIPRP | 0.0922 |
| RRIRWRPPRLPRPRPRPTKRPRP | 0.202 |
| RRIRWRPPRLPRPRPRPTLAPRP | 0.754 |
| RRIRWRPPRLPRPRPRPTLHPRP | 0.132 |
| RRIRWRPPRLPRPRPRPTMDPRP | 0.156 |
| RRIRWRPPRLPRPRPRPTMMPRP | 0.113 |
| RRIRWRPPRLPRPRPRPTNSPRP | -0.39 |
| RRIRWRPPRLPRPRPRPTRFPRP | 0.286 |
| RRIRWRPPRLPRPRPRPTSDPRP | -0.0119 |
| RRIRWRPPRLPRPRPRPTSSPRP | 0.23 |
| RRIRWRPPRLPRPRPRPTTRPRP | 0.672 |
| RRIRWRPPRLPRPRPRPTVIPRP | 0.0385 |
| RRIRWRPPRLPRPRPRPTWHPRP | 0.0819 |
| RRIRWRPPRLPRPRPRPTWRPRP | 0.609 |
| RRIRWRPPRLPRPRPRPTYHPRP | -0.0794 |
| RRIRWRPPRLPRPRPRPTYVPRP | 0.0417 |
| RRIRWRPPRLPRPRPRPVASPRP | 0.27 |
| RRIRWRPPRLPRPRPRPVCNPRP | 0.0983 |
| RRIRWRPPRLPRPRPRPVDDPRP | -0.0142 |
| RRIRWRPPRLPRPRPRPVFHPRP | 0.379 |
| RRIRWRPPRLPRPRPRPVFLPRP | -0.0837 |
| RRIRWRPPRLPRPRPRPVGCPRP | 0.575 |
| RRIRWRPPRLPRPRPRPVGKPRP | 0.107 |

| Sequence | shrunken log2 fold change |
| --- | --- |
| RRIRWRPPRLPRPRPRPVGWPRP | 1.13 |
| RRIRWRPPRLPRPRPRPVHGPRP | 0.492 |
| RRIRWRPPRLPRPRPRPVHIPRP | -0.091 |
| RRIRWRPPRLPRPRPRPVIFPRP | 1.32 |
| RRIRWRPPRLPRPRPRPVKTPRP | 0.00121 |
| RRIRWRPPRLPRPRPRPVMLPRP | -0.0383 |
| RRIRWRPPRLPRPRPRPVMPPRP | 0.15 |
| RRIRWRPPRLPRPRPRPVMSPRP | -0.172 |
| RRIRWRPPRLPRPRPRPVNKPRP | -0.0372 |
| RRIRWRPPRLPRPRPRPVNTPRP | -0.0848 |
| RRIRWRPPRLPRPRPRPVNWPRP | 0.537 |
| RRIRWRPPRLPRPRPRPVQCPRP | 0.039 |
| RRIRWRPPRLPRPRPRPVRIPRP | -0.0854 |
| RRIRWRPPRLPRPRPRPVRTPRP | 0.955 |
| RRIRWRPPRLPRPRPRPVSQPRP | 0.139 |
| RRIRWRPPRLPRPRPRPVSWPRP | 0.782 |
| RRIRWRPPRLPRPRPRPVTYPRP | 0.186 |
| RRIRWRPPRLPRPRPRPVWCPRP | 0.0155 |
| RRIRWRPPRLPRPRPRPVWHPRP | 0.387 |
| RRIRWRPPRLPRPRPRPVYMPRP | -0.476 |
| RRIRWRPPRLPRPRPRPVYWPRP | 0.14 |
| RRIRWRPPRLPRPRPRPWADPRP | 0.0109 |
| RRIRWRPPRLPRPRPRPWAGPRP | 0.167 |
| RRIRWRPPRLPRPRPRPWDCPRP | -0.0326 |
| RRIRWRPPRLPRPRPRPWDWPRP | 0.00466 |

| Sequence | shrunken log2 fold change |
| --- | --- |
| RRIRWRPPRLPRPRPRPWGCPRP | 0.423 |
| RRIRWRPPRLPRPRPRPWGFPRP | 0.27 |
| RRIRWRPPRLPRPRPRPWHFPRP | -0.265 |
| RRIRWRPPRLPRPRPRPWHHPRP | -0.0157 |
| RRIRWRPPRLPRPRPRPWHMPRP | 0.219 |
| RRIRWRPPRLPRPRPRPWISPRP | -0.124 |
| RRIRWRPPRLPRPRPRPWKQPRP | 0.296 |
| RRIRWRPPRLPRPRPRPWLYPRP | -0.128 |
| RRIRWRPPRLPRPRPRPWMDPRP | -0.0803 |
| RRIRWRPPRLPRPRPRPWQFPRP | 0.00487 |
| RRIRWRPPRLPRPRPRPWQHPRP | -0.0883 |
| RRIRWRPPRLPRPRPRPWWTPRP | -0.0199 |
| RRIRWRPPRLPRPRPRPWYEPRP | 0.0012 |
| RRIRWRPPRLPRPRPRPYAAPRP | 0.445 |
| RRIRWRPPRLPRPRPRPYALPRP | 0.0509 |
| RRIRWRPPRLPRPRPRPYCSPRP | -0.0518 |
| RRIRWRPPRLPRPRPRPYCTPRP | -0.322 |
| RRIRWRPPRLPRPRPRPYDKPRP | -0.534 |
| RRIRWRPPRLPRPRPRPYEAPRP | -0.569 |
| RRIRWRPPRLPRPRPRPYENPRP | -0.19 |
| RRIRWRPPRLPRPRPRPYEWPRP | 0.0229 |
| RRIRWRPPRLPRPRPRPYEYPRP | -0.254 |
| RRIRWRPPRLPRPRPRPYFRPRP | -0.787 |
| RRIRWRPPRLPRPRPRPYFWPRP | -0.222 |
| RRIRWRPPRLPRPRPRPYGEPRP | -0.0723 |

| Sequence | shrunken log2 fold change |
| --- | --- |
| RRIRWRPPRLPRPRPRPYGWPRP | -0.0271 |
| RRIRWRPPRLPRPRPRPYHGPRP | -0.327 |
| RRIRWRPPRLPRPRPRPYIKPRP | -0.736 |
| RRIRWRPPRLPRPRPRPYITPRP | -0.13 |
| RRIRWRPPRLPRPRPRPYIWPRP | -0.477 |
| RRIRWRPPRLPRPRPRPYLIPRP | -0.38 |
| RRIRWRPPRLPRPRPRPYLLPRP | -0.508 |
| RRIRWRPPRLPRPRPRPYLMPRP | -0.319 |
| RRIRWRPPRLPRPRPRPYLTPRP | -0.089 |
| RRIRWRPPRLPRPRPRPYMDPRP | -0.551 |
| RRIRWRPPRLPRPRPRPYMQPRP | -0.422 |
| RRIRWRPPRLPRPRPRPYNEPRP | -0.13 |
| RRIRWRPPRLPRPRPRPYNWPRP | -1.06 |
| RRIRWRPPRLPRPRPRPYQLPRP | -0.26 |
| RRIRWRPPRLPRPRPRPYQSPRP | -0.583 |
| RRIRWRPPRLPRPRPRPYRYPRP | 0.0299 |
| RRIRWRPPRLPRPRPRPYSYPRP | -0.00188 |
| RRIRWRPPRLPRPRPRPYWFPRP | -0.0484 |
| RRIRWRPPRLPRPRPRPYWRPRP | 0.00194 |
| RRIRYRPPRLPRPRPRPACEPRP | -0.0778 |
| RRIRYRPPRLPRPRPRPACTPRP | -0.292 |
| RRIRYRPPRLPRPRPRPADNPRP | -0.938 |
| RRIRYRPPRLPRPRPRPADVPRP | -0.127 |
| RRIRYRPPRLPRPRPRPADYPRP | 3.66 |
| RRIRYRPPRLPRPRPRPAEAPRP | 0.0062 |

| Sequence | shrunken log2 fold change |
| --- | --- |
| RRIRYRPPRLPRPRPRPAEHPRP | -0.0954 |
| RRIRYRPPRLPRPRPRPAEVPRP | -0.0361 |
| RRIRYRPPRLPRPRPRPAFCPRP | -0.1 |
| RRIRYRPPRLPRPRPRPAFNPRP | -0.431 |
| RRIRYRPPRLPRPRPRPAGLPRP | 0.125 |
| RRIRYRPPRLPRPRPRPAHGPRP | 0.1 |
| RRIRYRPPRLPRPRPRPAIRPRP | -0.0189 |
| RRIRYRPPRLPRPRPRPAKSPRP | -0.156 |
| RRIRYRPPRLPRPRPRPALIPRP | -0.273 |
| RRIRYRPPRLPRPRPRPALNPRP | -0.541 |
| RRIRYRPPRLPRPRPRPAMQPRP | -0.0244 |
| RRIRYRPPRLPRPRPRPAMVPRP | -0.136 |
| RRIRYRPPRLPRPRPRPANEPRP | 0.0338 |
| RRIRYRPPRLPRPRPRPAPCPRP | -0.0799 |
| RRIRYRPPRLPRPRPRPAPNPRP | -0.01 |
| RRIRYRPPRLPRPRPRPAQWPRP | -0.294 |
| RRIRYRPPRLPRPRPRPARCPRP | 0.0957 |
| RRIRYRPPRLPRPRPRPARKPRP | -0.486 |
| RRIRYRPPRLPRPRPRPASGPRP | -0.148 |
| RRIRYRPPRLPRPRPRPASLPRP | -0.662 |
| RRIRYRPPRLPRPRPRPASRPRP | -0.0366 |
| RRIRYRPPRLPRPRPRPATGPRP | 0.337 |
| RRIRYRPPRLPRPRPRPATIPRP | -1.16 |
| RRIRYRPPRLPRPRPRPATSPRP | -0.452 |
| RRIRYRPPRLPRPRPRPATYPRP | -0.113 |
